Source: patent US12102696B2, “Radiolabeling and formulation for scale up of 64Cu-DOTATATE” (Curium US LLC, priority 2020, dated 2024)
Marks after values point to notes of the source that are not given here.

Assays:
[1] = Stability of 64Cu-DOTATATE in final dose matrix (NaOAsc, EtOH, GA) by HPLC; type: physicochemical
Protocol: (§1) HPLC was performed using an Agilent 1200 series system equipped with a variable wavelength UV-Vis detector followed in-line with a sodium iodide detector (Bioscan B-FC-200P). A Phenomenex Luna C18 column (150 mm×.4.6 mm, 5 μm) was used. The mobile phase was made of Solvent A and Solvent B. Solvent A was a 0.1% trifluoroacetic acid (TFA) in HRW, and solvent B was 0.1% TFA acid in acetonitrile (ACN). The gradient was (i) 15-40% Solvent B in A for 10 min, 40% Solvent B in A from 10 to 15 min, 15% Solvent B in A from 15-16 min, and 15% Solvent B in Solvent A from 16-19 min. The flow rate was 1.2 mL/min, and UV detection was monitored at 220 nm.
The effect of ethanol (EtOH) and gentisic acid (GA) content in the final dose matrix on chemical stability of ^64Cu-dotatate was assessed. In these experiments, 500 mCi reactions were performed using the general procedure outlined in Example 2 and the ^64Cu-DOTATATE product was eluted from the Sep-Pak with 2 mL of 50% EtOH (aq) into 5 mL of 50 mg/mL NaOAsc buffer to serve as the purified ^64Cu-DOTATATE stock solution. From the ^64Cu-DOTATATE stock, 1 mL aliquots were transferred to vials containing the following solutions:
In those samples, the decrease in ^64Cu-DOTATATE correlated with an increase in free ^64Cu and two unknown radioimpurities at tR=6.6 min and 7.1 min.

[2] = Stability (RCP by radio-HPLC) of purified scale-up 64Cu-DOTATATE reactions; type: physicochemical; conditions: for RCP: Sep-Pak purified material
Protocol: as §1
Radiolabeling reactions followed the general procedure described herein. A solution of ^64Cu in 0.05 M HCl was mixed with a solution of DOTATATE in sodium acetate/gentisic acid buffer. The reaction mixture was heated to 30° C. for 5 min and then purified via a C-18 solid phase extraction cartridge. The purified ^64Cu-DOTATATE was collected in 2 mL of 50% EtOH and subsequently diluted with an ascorbic acid solution. The final product was assayed for activity and the radiochemical purity (RCP) was evaluated via radio-HPLC analysis. Characterization was performed against non-radioactive DOTATATE (tR=6.3 min) and Cu-DOTATATE (tR=7.3 min) standards.
Representative reactions for 100 mCi-7000 mCi batch sizes and results are outlined in Table 9. […] The remainder of the activity eluted (tR=6.2-7.2 min) are attributed to degradation products due to radiolysis.

[3] = biological target: somatostatin receptors, subtype 2 receptors (SSTR2) (Homo sapiens, UniProt P30874); conditions: cited from earlier work
Sequence of somatostatin receptors, subtype 2 receptors (SSTR2) (P30874 whole entry): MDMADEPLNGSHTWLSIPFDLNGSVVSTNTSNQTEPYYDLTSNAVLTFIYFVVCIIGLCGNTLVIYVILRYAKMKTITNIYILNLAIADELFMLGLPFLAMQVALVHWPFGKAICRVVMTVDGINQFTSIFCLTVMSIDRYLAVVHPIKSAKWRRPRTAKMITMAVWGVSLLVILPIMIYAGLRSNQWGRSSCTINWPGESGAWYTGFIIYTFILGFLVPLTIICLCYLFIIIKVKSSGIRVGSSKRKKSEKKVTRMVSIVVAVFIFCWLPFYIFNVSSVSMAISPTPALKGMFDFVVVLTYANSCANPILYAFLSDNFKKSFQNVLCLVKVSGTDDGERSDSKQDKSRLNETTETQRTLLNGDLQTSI

[4] = reaction 120.6 mCi 64Cu at TOS, 200 μg DOTATATE
[5] = reaction 481 mCi 64Cu at TOS, 1000 μg DOTATATE, average of two samples
[6] = reaction 1190 mCi 64Cu at TOS, 2000 μg DOTATATE, average of two samples
[7] = reaction 2402 mCi 64Cu at TOS, 4000 μg DOTATATE, average of two samples
[8] = reaction 7297 mCi 64Cu at TOS, 4378 μg DOTATATE

Structure (SMILES): C[C@@H](O)[C@H](NC(=O)[C@@H]1CSSC[C@H](NC(=O)[C@@H](Cc2ccccc2)NC(=O)CN2CCN3CCN(CC(=O)O)CCN(CC2)CC(=O)[O][64Cu][O]C(=O)C3)C(=O)N[C@@H](Cc2ccc(O)cc2)C(=O)N[C@H](Cc2c[nH]c3ccccc23)C(=O)N[C@@H](CCCCN)C(=O)N[C@@H]([C@@H](C)O)C(=O)N1)C(=O)O [^64Cu-DOTATATE, copper (Cu64)-N-[(4,7,10-Tricarboxymethyl-1,4,7,10-tetraazacyclododec-1-yl)acetyl]-Dphenylalanyl-L-cysteinyl-L-tyrosyl-D-tryptophanyl-L-lysyl-L-threoninyl-L-cysteinyl-L-threonine-cyclic (2-7) disulfide]
- purity, chemically stable for two days ([1]; sodium ascorbate 45-122 mg/mL, ethanol 1.6%-5.2%, activity concentration 3.6-16 mCi/mL at time of preparation): greater than 95%
- purity, remained stable ([1]; sodium ascorbate up to 98 mg/mL, ethanol up to 9.7%, activity concentration approximately 18 mCi/mL at time of preparation): greater than 90%
- period over which stable (HPLC) ([2]; purified reaction solutions): at least 47 h
- RCP Day 1 (+24 hr) [2, 4]: 97.7%^
- RCP Day 2 (+47 hr) [2, 4]: 95.0%^
- RCP [2, 4]: 98.9%^
- RCP [2, 5]: 99.4%^c
- RCP Day 1 (+24 hr) [2, 5]: 99.7%^c
- RCP Day 2 (+47 hr) [2, 5]: 99.4%^c
- RCP [2, 6]: 99.6%^c
- RCP Day 1 (+24 hr) [2, 6]: 99.4%^c
- RCP Day 2 (+47 hr) [2, 6]: 99.7%^c
- RCP [2, 7]: 99.2%^c
- RCP Day 1 (+24 hr) [2, 7]: 99.4%^c
- RCP Day 2 (+47 hr) [2, 7]: 99.3%^c
- RCP Day 2 (+47 hr) [2, 8]: 95%
- RCP [2, 8]: 95%
- affinity for somatostatin receptor subtypes [3]: highest affinity for subtype 2 receptors (SSTR2)
